Data reported in patent publication US20210317186A1 (BRIGHAM AND WOMEN S HOSPITAL, published 2021).

T1: endogenous CD5L (mouse; in serum or secreted by bone marrow derived dendritic cells) (mouse, UniProt Q9QWK4 22-352)
T1 construct: also called natural CD5L; AIM
T1 sequence (looked up): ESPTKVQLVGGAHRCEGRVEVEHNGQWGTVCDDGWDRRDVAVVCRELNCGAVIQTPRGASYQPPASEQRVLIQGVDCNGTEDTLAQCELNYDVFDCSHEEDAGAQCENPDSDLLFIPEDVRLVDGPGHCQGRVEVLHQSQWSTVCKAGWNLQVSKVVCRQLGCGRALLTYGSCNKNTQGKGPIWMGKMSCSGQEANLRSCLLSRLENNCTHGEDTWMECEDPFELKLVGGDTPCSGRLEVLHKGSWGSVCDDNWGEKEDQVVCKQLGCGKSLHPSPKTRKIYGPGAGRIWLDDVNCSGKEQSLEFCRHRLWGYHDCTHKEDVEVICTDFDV


Key:
[1] = target: the molecule itself; assay: size exclusion chromatography (Superdex S200) of His-tagged CD5L from 293E supernatant
Protocol: Recombinant protein CD5L monomer and homodimer was purified from the supernatant of 293E cells transfected with a CD5L expression vector. Recombinant mCD5L:p40 was recovered from the supernatant of 293E cells transfected with the CD5L:p40 expression vector. After harvesting transfected 293E cells by centrifugation, the protein was affinity purified from the supernatant using Ni Sepharose 6 Fast Flow resin (GE Healthcare). After binding the protein to resin, the resin was washed with 20 mM Tris, 0.3M NaCl, pH 8.0 and the protein eluted using 20 mM Tris, 0.3M NaCl, 0.4M Imidazole, pH 8.0. The protein was further polished by a […] sizing exclusion column (GE Healthcare) in buffer 10 mM NaHPO4, 0.15M NaCl, pH 7.2.

[2] = target: T1, endogenous CD5L (mouse; in serum or …); assay: sandwich ELISA on mouse serum, capture with anti-IL-12 p40, detection with anti-CD5L
Protocol: Serum was collected kinetically from wildtype and Cd5l^{-/-} mice with DSS-induced colitis (2% DSS in drinking water for 6 days followed by 7 days of normal water) and the level of CD5L:p40 was measured using an ELISA assay. In the ELISA assay anti-IL-12 p40 was used to capture the heterodimer and enzyme linked anti-CD5L was used to detect the heterodimer.
Preliminary screens were conducted to determine what signals could induce CD5L homodimer and CD5L:p40 heterodimer. In particular, bone marrow derived dendritic cells were stimulated with TLR ligands for 24 hours and the supernatant was analyzed for CD5L:p40 secretion by ELISA.

| Binder | binding result [1] | binding result [2] |
| --- | --- | --- |
| recombinant CD5L with His tag at C-terminus (mouse, mCD5L) (ligand, Made by Biolegend in 293E cells; The transfection gave a monomer and a homodimer fraction on size exclusion; also called soluble CD5L; sCD5L; not shown: His tag at C-terminus) ESPTKVQLVGGAHRCEGRVEVEHNGQWGTVCDDGWDRRDVAVVCRELNCGAVIQTPRGASYQPPASEQRVLIQGVDCNGTEDTLAQCELNYDVFDCSHEEDAGAQCENPDSDLLFIPEDVRLVDGPGHCQGRVEVLHQSQWSTVCKAGWNLQVSKVVCRQLGCGRALLTYGSCNKSTQGKGPIWMGKMSCSGQEANLRSCLLSRLENNCTHGEDTWMECEDPFELKLVGGDTPCSGRLEVLHKGSWGSVCDDNWGEKEDQVVCKQLGCGKSLHPSPKTRKIYGPGAGRIWLDDVNCSGKEQSLEFCRHRLWGYHDCTHKEDVEVICTDFDV | binds |  |
| endogenous p40 (IL-12 p40, Il12b; mouse) (ligand, UniProt P43432 23-335, looked up, also called interleukin 12B) MWELEKDVYVVEVDWTPDAPGETVNLTCDTPEEDDITWTSDQRHGVIGSGKTLTITVKEFLDAGQYTCHKGGETLSHSHLLLHKKENGIWSTEILKNFKNKTFLKCEAPNYSGRFTCSWLVQRNMDLKFNIKSSSSSPDSRAVTCGMASLSAEKVTLDQRDYEKYSVSCQEDVTCPTAEETLPIELALEARQQNKYENYSTSFFIRDIIKPDPPKNLQMKPLKNSQVEVSWEYPDSWSTPHSYFSLKFFVRIQRKKEKMKETEEGCNQKGAFLVEKTSTEVQCKGGNVCVQAQDRYYNSSCSKWACVPCRVRS |  | binds |
